Data taken from article PMC2900196.

What was measured:
[1] = molecular target: Grass carp reovirus (GCRV) turret protein VP1 (Grass carp reovirus (GCRV)); experiment: cryo-EM structure
[2] = molecular target: Grass carp reovirus (GCRV) inner capsid shell protein VP3 (Grass carp reovirus (GCRV)); experiment: cryo-EM structure

Substance	stoichiometry N [1]	stoichiometry N [2]
Grass carp reovirus (GCRV) turret protein VP1 (natural protein)	5	
Grass carp reovirus (GCRV) inner capsid shell protein VP3 (natural protein)		120
